These results are taken from patent US20030200558A1 (MONSANTO, published 2003).

Common to all, as to test: sucrose gradient sedimentation, anti-FLAG western (self-assembly)
Series [1] concerns the molecule itself.
Series [2] concerns the molecule itself. Here is the method: (§1) To determine if the recombinant forms of β subunit expressed in E. coli from pMON39328 and pMON39329 could self-assemble to form trimers, aliquots of the soluble protein fraction from E. coli lysates are layered onto 12 ml of a 5-25% sucrose density gradient and centrifuged at 36,000 rpm for 17.5 hours at 20° C. (Sorvall TH-641 rotor; Sorvall Ultra Pro 80 ultracentrifuge). Following centrifugation, the gradient is divided into fractions using a Labconco Autodensi-Flow instrument (Labconco, Kansas City, Mo.), and each fraction is analyzed by western blot analysis using Anti-FLAG M2 antibody (Stratagene Corporation, LaJolla, Calif.) to determine which fractions contained β-conglycinin β subunit. 7S and […] soy protein fractions, as well as ovalbumin (45 kD) and aldolase (158 kD), are run as size markers on separate gradients.
The source holds these as a separate data set.

Series [3] concerns the molecule itself. Here is the method:
as §1
This example sets forth confirmation of the protein structure from the expression of modified β-conglycinin β subunit clones. The assembly properties of the following modified forms of the β subunit (indicated by mutant ID number), each containing a different tryptophan substitution, are determined as described in Example 6. Western blot analysis of sucrose gradient fractions is carried out as in Example 6 using anti-FLAG antibody.
This is another data set of the same source.

Where a chain is given by its changes, count along the chain named. Where two headings read alike, the source gives them in different places.

B1: β-conglycinin β subunit mutant 39335-6 (other)
chain: MDYKDDDDKLKVREDENIPFYLRSSNSFQTLFENQNGRIRLIQRFNKRSPQLENLRDYIIVQFQSKPNTILLPIHADADFLLFVLSGRAILTLVNNDDRDSYNLHPGIAQRIPAGTTYYLVNIHDHQNLKIIKLAIIVNKPGRYDDFFLSSTQAQQSYLQGFSHNILETSFHSEFEEINRVLLGEEEEQRQQEGIIVELSKEQIRQLSRRAKSSSRKTISSEDEPFNLRSRNIIYSNNFGKFFEITPEKIIQLRDLDIFLSSVDINEGALLLPHFNSKAIVILVIIEGDANIELVGIKEQQQKQKQEEEPLEVQRYRAELSEDDVFVIPAAYPFVVNATSNLNFLAFGINAENNQRNFLAGEKDNVVRQIERQVQELAFPGSAQDVERLLKKQRESYFVDAQPQQKEEGSKGRKGPFPSILGALY
Turning to B1, the binding result in series [1] is recorded as “no binding”.

B2: mature form (plus additional methionine encoded by start codon) of the β-conglycinin β subunit encoded by pMON39329 (other)
chain: MLKVREDENNPFYLRSSNSFQTLFENQNGRIRLLQRFNKRSPQLENLRDYRIVQFQSKPNTILLPHHADADFLLFVLSGRAILTLVNNDDRDSYNLHPGDAQRIPAGTTYYLVNPHDHQNLKIIKLAIPVNKPGRYDDFFLSSTQAQQSYLQGFSHNILETSFHSEFEEINRVLLGEEEEQRQQEGVIVELSKEQIRQLSRRAKSSSRKTISSEDEPFNLRSRNPIYSNNFGKFFEITPEKTPQLRDLDIFLSSVDINEGALLLPHFNSKAIVILVINEGDANIELVGIKEQQQKQKQEEEPLEVQRYRAELSEDDVFVIPAAYPFVVNATSNLNFLAFGINAENNQRNFLAGEKDNVVRQIERQVQELAFPGSAQDVERLLKKQRESYFVDAQPQQKEEGSKGRKGPFPSILGALY
notes: expressed in E. coli; also called native form
B2: the binding result in series [2] is given as “binds”.

B3: epitope (FLAG)-tagged form of the β-conglycinin β subunit encoded by pMON39328 (other)
chain: MDYKDDDDKLKVREDENNPFYLRSSNSFQTLFENQNGRIRLLQRFNKRSPQLENLRDYRIVQFQSKPNTILLPHHADADFLLFVLSGRAILTLVNNDDRDSYNLHPGDAQRIPAGTTYYLVNPHDHQNLKIIKLAIPVNKPGRYDDFFLSSTQAQQSYLQGFSHNILETSFHSEFEEINRVLLGEEEEQRQQEGVIVELSKEQIRQLSRRAKSSSRKTISSEDEPFNLRSRNPIYSNNFGKFFEITPEKTPQLRDLDIFLSSVDINEGALLLPHFNSKAIVILVINEGDANIELVGIKEQQQKQKQEEEPLEVQRYRAELSEDDVFVIPAAYPFVVNATSNLNFLAFGINAENNQRNFLAGEKDNVVRQIERQVQELAFPGSAQDVERLLKKQRESYFVDAQPQQKEEGSKGRKGPFPSILGALY
notes: Expressed in E. coli. pMON39335 encodes the same protein (silent change TTA to CTT at Leu24); also called pMON39335
Consider B3, for which the binding result in series [2] is listed as “binds”.

B4: β-conglycinin β subunit mutant 39328-63 (other)
chain: B3 chain with Y21W, Y58W, Y102W, P123W, Y144W, Y158W, P251W, Y316W, Y397W
With B4, the binding result in series [3] is “no binding”.

B5: β-conglycinin β subunit mutant 39328-27 (other)
chain: B3 chain with Y21W, Y58W, H74W, Y102W, Y118W, Y119W
With B5, the binding result in series [3] was “no binding”.

B6: β-conglycinin β subunit mutant 39328-36 (other)
chain: B3 chain with Y58W, Y102W, P123W, Y144W, Y158W, P225W, Y235W, P251W, Y316W
With B6, the binding result in series [3] is recorded as “no binding”.

B7: β-conglycinin β subunit mutant 39328-59 (other)
chain: B3 chain with Y21W, Y58W, Y102W, Y119W, P123W, Y144W, Y158W, Y316W, Y397W
Take B7: the binding result in series [3] is listed as “no binding”.

B8: β-conglycinin β subunit mutant 39328-65 (other)
chain: B3 chain with Y21W, Y58W, Y102W, P123W, Y144W, Y158W, Y316W, Y332W, Y397W
For B8, in series [3], the binding result is “no binding”.
